For the assay, the target named is recombinant hMDM2 (human, UniProt Q00987 1-491). Put plainly: ELISA.

The text below walks through data of publication PMC4615104 (Cell Cycle, 2015).

recombinant hMDM2, sequence (Q00987 whole entry): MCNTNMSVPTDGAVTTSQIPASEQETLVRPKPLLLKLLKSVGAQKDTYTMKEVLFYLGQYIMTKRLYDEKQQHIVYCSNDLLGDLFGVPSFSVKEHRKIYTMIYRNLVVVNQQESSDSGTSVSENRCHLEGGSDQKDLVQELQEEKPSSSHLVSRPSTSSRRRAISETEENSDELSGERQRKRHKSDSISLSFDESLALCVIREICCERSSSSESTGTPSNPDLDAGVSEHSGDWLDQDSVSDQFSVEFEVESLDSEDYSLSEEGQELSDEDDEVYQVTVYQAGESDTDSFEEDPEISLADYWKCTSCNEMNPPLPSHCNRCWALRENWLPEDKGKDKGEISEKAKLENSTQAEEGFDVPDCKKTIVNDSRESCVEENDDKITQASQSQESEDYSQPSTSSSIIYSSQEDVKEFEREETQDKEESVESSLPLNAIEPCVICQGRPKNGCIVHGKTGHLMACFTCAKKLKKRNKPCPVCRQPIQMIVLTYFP

B1: recombinant hMDMX^p60 (natural protein)
chain: MDIPSQDQLKQSAEESSTSRKRTTEDDIPTLPTSEHKCIHSREDEDLIENLAQDETSRLDLGFEEWDVAGLPWWFLGNLRSNYTPRSNGSTDLQTNQDVGTAIVSDTTDDLWFLNESVSEQLGVGIKVEAADTEQTSEEVGKVSDKKVIEVGKNDDLEDSKSLSDDTDVEVTSEDEWQCTECKKFNSPSKRYCFRCWALRKDWYSDCSKLTHSLSTSDITAIPEKENEGNDVPDCRRTISAPVVRPKDAYIKKENSKLFDPCNSVEFLDLAHSSESQETISSMGEQLDNLSEQRTDTENMEDCQNLLKPCSLCEKRPRDGNIIHGRTGHLVTCFHCARRLKKAGASCPICKKEIQLVIKVFIA
As to B1, the binding result is on record as “binds”.

B2: recombinant hMDMX^FL (natural protein)
chain: MTSFSTSAQCSTSDSACRISPGQINQVRPKLPLLKILHAAGAQGEMFTVKEVMHYLGQYIMVKQLYDQQEQHMVYCGGDLLGELLGRQSFSVKDPSPLYDMLRKNLVTLATATTDAAQTLALAQDHSMDIPSQDQLKQSAEESSTSRKRTTEDDIPTLPTSEHKCIHSREDEDLIENLAQDETSRLDLGFEEWDVAGLPWWFLGNLRSNYTPRSNGSTDLQTNQDVGTAIVSDTTDDLWFLNESVSEQLGVGIKVEAADTEQTSEEVGKVSDKKVIEVGKNDDLEDSKSLSDDTDVEVTSEDEWQCTECKKFNSPSKRYCFRCWALRKDWYSDCSKLTHSLSTSDITAIPEKENEGNDVPDCRRTISAPVVRPKDAYIKKENSKLFDPCNSVEFLDLAHSSESQETISSMGEQLDNLSEQRTDTENMEDCQNLLKPCSLCEKRPRDGNIIHGRTGHLVTCFHCARRLKKAGASCPICKKEIQLVIKVFIA
For the molecule B2, the binding result was “binds”.
